Data set [1] deals with the molecule itself. The experiment in a line: SEC-MALS; mHsp60 with mHsp10, pre-incubated with 1 mM ATP for 5 min; Superose-6, ~25 C. (In general: Size exclusion chromatography separates by hydrodynamic size, large species first.)
Data set [2] concerns the molecule itself. The data set is described as follows: SEC-MALS; mHsp60 (WT or variant) with mHsp10, pre-incubated with 1 mM ATP, 1 mM BeCl2 and 10 mM NaF for 5 min; Superose-6, ~25 C.

B1: wild-type human mitochondrial Hsp60 (mHsp60) (natural protein)
chain: GSAKDVKFGADARALMLQGVDLLADAVAVTMGPKGRTVIIEQSWGSPKVTKDGVTVAKSIDLKDKYKNIGAKLVQDVANNTNEEAGDGTTTATVLARSIAKEGFEKISKGANPVEIRRGVMLAVDAVIAELKKQSKPVTTPEEIAQVATISANGDKEIGNIISDAMKKVGRKGVITVKDGKTLNDELEIIEGMKFDRGYISPYFINTSKGQKCEFQDAYVLLSEKKISSIQSIVPALEIANAHRKPLVIIAEDVDGEALSTLVLNRLKVGLQVVAVKAPGFGDNRKNQLKDMAIATGGAVFGEEGLTLNLEDVQPHDLGKVGEVIVTKDDAMLLKGKGDKAQIEKRIQEIIEQLDVTTSEYEKEKLNERLAKLSDGVAVLKVGGTSDVEVNEKKDRVTDALNATRAAVEEGIVLGGGCALLRCIPALDSLTPANEDQKIGIEIIKRTLKIPAMTIAKNAGVEGSLIVEKIMQSSSEVGYDAMAGDFVNMVEKGIIDPTKVVRTALLDAAGVASLLTTAEVVVTEIPKEEKDPGMGAMGGMGGGMGGGMF
notes: residues left at the N-terminus after TEV cleavage and removal of the HisTag; human mitochondrial Hsp60 (mt-cpn60); Oligomeric state depends on nucleotide and concentration: monomers, heptameric single rings, tetradecameric double rings; also called WT mHsp60; mt-cpn60; source: E. coli Rosetta, purified (nickel-agarose, TEV cleavage, anion exchange, oligomerised with ATP, Superdex 200); not …
Consider B1, for which the stoichiometry N (commonly the number of molecules, sites or subunits per partner or assembly) in data set [1] was found to be 7; in data set [2], 14.

The record behind these values is paper PMC7174398 (Nature Communications, 2020).
